Where “and” joins values, the source holds several entries; their conditions need not be identical. Identical values can stand only once.
Columns and labels:
[1] = biological target: T1, cleaved high molecular weight kininogen (HMWK) (human, UniProt P01042 19-380; P01042 390-644); assay: sandwich ELISA with coated Fab; value = C, midpoint of the printed 4-P fit; 2-chain HMWK spiked into SBT assay buffer
T1 construct: also called cleaved HMWK; 2-chain HMWK
T1 sequence 1: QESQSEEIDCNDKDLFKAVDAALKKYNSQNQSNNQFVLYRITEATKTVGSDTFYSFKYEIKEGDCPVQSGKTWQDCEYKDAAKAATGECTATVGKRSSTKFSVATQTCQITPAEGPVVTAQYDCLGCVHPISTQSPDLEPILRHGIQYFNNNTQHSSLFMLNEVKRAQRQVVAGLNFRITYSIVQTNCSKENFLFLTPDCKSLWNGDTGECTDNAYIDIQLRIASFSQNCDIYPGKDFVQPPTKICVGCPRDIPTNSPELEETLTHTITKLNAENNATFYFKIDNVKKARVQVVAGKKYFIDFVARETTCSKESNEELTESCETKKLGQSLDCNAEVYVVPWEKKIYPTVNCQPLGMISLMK
T1 sequence 2: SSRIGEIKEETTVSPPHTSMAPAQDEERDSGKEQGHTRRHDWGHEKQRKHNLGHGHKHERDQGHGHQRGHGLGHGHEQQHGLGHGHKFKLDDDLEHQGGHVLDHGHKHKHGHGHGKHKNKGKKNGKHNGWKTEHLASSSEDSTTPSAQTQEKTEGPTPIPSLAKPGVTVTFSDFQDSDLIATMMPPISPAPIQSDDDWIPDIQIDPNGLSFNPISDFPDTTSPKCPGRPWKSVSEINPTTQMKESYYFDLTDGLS
Text: (§1) Purified cleaved HMWK was spiked into SBT assay buffer (open circles), SBT assay buffer and analyzed in the presence of 10% plasma (squares), or HMWK-deficient plasma and analyzed in the presence of 10% plasma (triangles). Purified cleaved HMWK was also spiked into assay buffer and analyzed in the presence of 2.5% plasma (diamonds) or HMWK deficient plasma and analyzed in the presence of 2.5% plasma (closed circles). The y-axis presents the ELISA signal in absorbance units, and the x-axis presents the concentration of kininogen in μg/mL.
(§2) The following day, the plate was washed and then blocked with 2% BSA (Protease/IgG free) in PBS buffer. Following a wash, samples containing cleaved HMWK in 0.1% BSA buffer in PBS with 0.05% Tween-20 (2-Chain HMWK assay buffer). Purified protein standards (e.g., 2-chain HMWK, intact HMWK or LMWK) were spiked into HMWK-deficient plasma and diluted 1:320 in 2-chain HMWK assay buffer. Following plate washing with PBST, a mixture of 2 mouse monoclonal antibodies (11H05 and 13B12) at 1 μg/mL in 2-chain HMWK assay buffer were added for 1 hour at room temperature. […] Signal was detected by the addition of 3,3′,5,5′-tetramethylbenzidine (TMB), an HRP substrate. […] Hydrolysis of a TMB substrate was detected using a microplate reader at 450 nm-630 nm (FIG. 3). […] Using these immunoassay conditions, specifically binding to cleaved HMWK was detected.

[2] = biological target: T1, cleaved high molecular weight kininogen …; assay: sandwich ELISA with coated Fab; value = C, midpoint of the printed 4-P fit; 2-chain HMWK spiked into assay buffer, analysed in 2.5% plasma
Text: as §1, §2

[3] = biological target: T1, cleaved high molecular weight kininogen …; assay: optimized sandwich ELISA: M004-B04 capture, detection 11H05 + 13B12; value = C, midpoint of the printed 4-P fit; in-well concentration
Description: (§3) The following day, the plate was washed and then blocked with 2% BSA (Protease/IgG free) in PBS buffer. Following a wash, samples containing cleaved HMWK in 0.1% BSA buffer in PBS with 0.05% Tween-20 (2-Chain HMWK assay buffer). Purified protein standards (e.g., 2-chain HMWK, intact HMWK or LMWK) were spiked into HMWK-deficient plasma and diluted 1:320 in 2-chain HMWK assay buffer. Following plate washing with PBST, a mixture of 2 mouse monoclonal antibodies (11H05 and 13B12) at 1 μg/mL in 2-chain HMWK assay buffer were added for 1 hour at room temperature. Unbound detection antibodies were washed and a 1:2000 dilution of goat anti-mouse secondary antibody conjugated to horseradish peroxidase (HRP) was added. The assay containing the secondary antibody was incubated for 1 hour at room temperature, and unbound secondary antibody was removed by washing with 2-chain HMWK assay buffer. Signal was detected by the addition of 3,3′,5,5′-tetramethylbenzidine (TMB), an HRP substrate. The reaction was stopped with phosphoric acid. Hydrolysis of a TMB substrate was detected using a microplate reader at 450 nm-630 nm (FIG. 3). […] Using these immunoassay conditions, specifically binding to cleaved HMWK was detected.

[4] = biological target: T1, cleaved high molecular weight kininogen …; assay: 2-chain HMWK sandwich ELISA standard curve, citrated plasma spiked with 2-chain HMWK, 10% final dilution; capture Fab M0004-B04 as in FIG. 12 B
[5] = biological target: T1, cleaved high molecular weight kininogen …; assay: sandwich ELISA with coated Fab; value = C, midpoint of the printed 4-P fit; 2-chain HMWK spiked into HMWK-deficient plasma, analysed in 2.5% plasma
Text: as §1, §2

[6] = biological target: T1, cleaved high molecular weight kininogen …; assay: ELISA on coated M004-B04, 2-chain HMWK titrated after preincubation of the plate with GCP28 peptide at 250 µg/mL; value = C of the printed 4-P fit; triangles, curve on the control's (the callout box on the graph names this curve HKH20: see recheck)
Description: as §3, with “Following” for “The following day, the plate was washed and then blocked with 2% BSA (Protease/IgG free) in PBS buffer. Following a wash, samples containing cleaved HMWK in 0.1% BSA buffer in PBS with 0.05% Tween-20 (2-Chain HMWK assay buffer). Purified protein standards (e.g., 2-chain HMWK, intact HMWK or LMWK) were spiked into HMWK-deficient plasma and diluted 1:320 in 2-chain HMWK assay buffer. Following”
To perform the assay, the kininogen peptides were diluted to 250 μg/mL and allowed to preincubate on assay plate. Then, purified 2-chain HMWK in deficient human plasma was diluted 160 and then added to plate.

B1: 559B-M0004-B04 (Fab, V domains shown)
VH: EVQLLESGGGLVQPGGSLRLSCAASGFTFSFYVMVWVRQAPGKGLEWVSGISPSGGNTAYADSVKGRFTISRDNSKNTLYLQMNSLRAEDTAVYYCARKLFYYDDTKGYFDFWGQGTLVTVSS
VL: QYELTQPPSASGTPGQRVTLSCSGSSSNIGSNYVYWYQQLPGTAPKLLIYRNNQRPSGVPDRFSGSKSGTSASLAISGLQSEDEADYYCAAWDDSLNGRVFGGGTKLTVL
notes: also called M004-B04
Which results are given for B1?
EC50 [1]: 226 µg/mL; EC50 [2]: 204 µg/mL; EC50 [3]: 0.00902 µg/mL and 0.0207 µg/mL and 0.0116 µg/mL; EC50 (read off the curve) [4]: ~0.1 µg/mL; EC50 [5]: 184 µg/mL; EC50 [6]: 0.00941 µg/mL
